Literature values, collected in article PMC4479967 (Journal of molecular neuroscience : MN, 2015).

Conditions: Src-dependent; ref Daulhac et al., 1999

B1: CCK: cholecystokinin (peptide, UniProt P06307 21-115, looked up)
Cholecystokinin: QPVPPADPAGSGLQRAEEAPRRQLRVSQRTDGESRAHLGALLARYIQQARKAPSGRMSIVKNLQNLDPSHRISDRDYMGWMDFGRRSAEEYEYPS
In the case of B1, the “Effect on ERK-1 and p85/p110-PI-3-K” value is listed as “causes activation”.
